The source of these data is US20230391890A1 (CORNELL UNIVERSITY, published 2023).

Assay [1] addresses T1, purified KIAA1199/CEMIP protein (aa 1-649) (human, UniProt Q8WUJ3 31-649).
T1 construct: also called recombinant KIAA1199/CEMIP protein
T1 sequence: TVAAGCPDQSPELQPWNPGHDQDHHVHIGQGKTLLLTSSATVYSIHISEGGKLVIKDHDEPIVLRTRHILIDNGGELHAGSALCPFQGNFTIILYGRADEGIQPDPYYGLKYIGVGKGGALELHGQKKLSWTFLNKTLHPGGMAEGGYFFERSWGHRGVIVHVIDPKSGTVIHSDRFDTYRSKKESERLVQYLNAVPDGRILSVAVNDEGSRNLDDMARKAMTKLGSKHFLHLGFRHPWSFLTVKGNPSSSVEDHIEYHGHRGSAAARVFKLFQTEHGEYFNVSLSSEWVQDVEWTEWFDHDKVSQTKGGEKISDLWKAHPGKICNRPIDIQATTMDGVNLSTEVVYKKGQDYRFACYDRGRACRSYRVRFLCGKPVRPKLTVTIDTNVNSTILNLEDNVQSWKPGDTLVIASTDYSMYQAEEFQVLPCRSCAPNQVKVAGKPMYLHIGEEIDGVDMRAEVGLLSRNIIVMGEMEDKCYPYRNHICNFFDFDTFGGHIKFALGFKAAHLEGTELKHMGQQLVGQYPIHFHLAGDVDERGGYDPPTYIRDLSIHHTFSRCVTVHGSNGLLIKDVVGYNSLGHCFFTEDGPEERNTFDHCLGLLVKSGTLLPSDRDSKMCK
The assay is described as follows: ELISA on recombinant CEMIP, purified antibody. (In an ELISA, binding on a coated surface is turned into a signal by an enzyme label.)

The target of assay [2] is T2, native CEMIP/KIAA1199 expressed on the surface of human cancer cells (human, UniProt Q8WUJ3 31-1361).
T2 construct: Endogenous CEMIP of MKN45 gastric and N2LA lung cancer cells in flow cytometry; The same entry is used for CEMIP on exosomes of brain tropic MDA-MB231 cells in the brain slice assay; also called native cell surface CEMIP/KIAA1199; CEMIP on MKN45 and N2LA cells
T2 sequence: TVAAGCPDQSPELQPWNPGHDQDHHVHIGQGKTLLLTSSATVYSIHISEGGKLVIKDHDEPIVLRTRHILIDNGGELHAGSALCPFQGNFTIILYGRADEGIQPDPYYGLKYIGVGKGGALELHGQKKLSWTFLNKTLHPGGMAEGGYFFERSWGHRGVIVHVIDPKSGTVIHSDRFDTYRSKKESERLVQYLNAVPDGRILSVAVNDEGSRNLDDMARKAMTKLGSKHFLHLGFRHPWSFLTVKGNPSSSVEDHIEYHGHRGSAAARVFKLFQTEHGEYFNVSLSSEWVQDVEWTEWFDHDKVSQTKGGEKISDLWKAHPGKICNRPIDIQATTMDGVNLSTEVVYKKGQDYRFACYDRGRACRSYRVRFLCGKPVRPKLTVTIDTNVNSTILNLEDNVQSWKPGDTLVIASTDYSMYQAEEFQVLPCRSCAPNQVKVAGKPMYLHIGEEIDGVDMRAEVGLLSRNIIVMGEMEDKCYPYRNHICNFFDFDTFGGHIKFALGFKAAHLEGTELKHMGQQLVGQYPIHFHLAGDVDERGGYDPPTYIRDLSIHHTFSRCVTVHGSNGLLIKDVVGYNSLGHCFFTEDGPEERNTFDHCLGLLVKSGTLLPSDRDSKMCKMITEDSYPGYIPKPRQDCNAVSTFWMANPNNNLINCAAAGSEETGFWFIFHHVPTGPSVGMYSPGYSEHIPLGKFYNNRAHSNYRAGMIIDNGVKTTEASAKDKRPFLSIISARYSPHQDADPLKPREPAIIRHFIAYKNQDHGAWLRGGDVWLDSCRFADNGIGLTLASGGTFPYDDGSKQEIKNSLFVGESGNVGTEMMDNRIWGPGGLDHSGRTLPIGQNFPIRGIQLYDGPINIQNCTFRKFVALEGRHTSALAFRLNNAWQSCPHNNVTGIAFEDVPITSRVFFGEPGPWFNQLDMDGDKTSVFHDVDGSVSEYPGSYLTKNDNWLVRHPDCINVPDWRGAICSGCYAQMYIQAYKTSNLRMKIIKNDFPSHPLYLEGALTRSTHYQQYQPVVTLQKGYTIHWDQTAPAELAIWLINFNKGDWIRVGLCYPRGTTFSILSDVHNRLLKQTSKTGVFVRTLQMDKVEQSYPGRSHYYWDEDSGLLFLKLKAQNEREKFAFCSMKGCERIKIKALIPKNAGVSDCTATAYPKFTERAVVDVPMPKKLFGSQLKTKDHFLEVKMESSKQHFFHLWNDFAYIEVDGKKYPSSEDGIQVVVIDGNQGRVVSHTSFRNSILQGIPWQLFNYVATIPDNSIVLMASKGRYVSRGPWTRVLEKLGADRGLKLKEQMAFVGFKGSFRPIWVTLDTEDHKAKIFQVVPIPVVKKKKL
The assay is described as follows: flow cytometry on MKN45 cells. For orientation: In flow cytometry, cells or beads pass a laser one at a time.

Assay [3] has as its target T2, native CEMIP/KIAA1199 expressed on the …. The assay is described as follows: cell-based or functional assay.

B1: 12A12 (cAb5776) (antibody, mouse IgG1, kappa, V domains shown)
VH: EVQLQQSGPELVKPGVSMKISCKASGYSFTAYTMNWVKQSHGENLEWIGLINPYNGGTTYNQKFKGKATLTVDKSSSTAYMELLSLTSEDSAVYYCASYDYGYAMDYWGQGTSVTVSS
VL: DVLMTQTPLSLPVSLGDQASISCRSSQSIVHRSGNTYLEWYLQKPGQSPKLLIYKVSNRFSGVPDRFSGSGSGTDFTLKISRVEAEDLGVYYCFQGSHVPWTFGGGTKLEIKR
notes: Mouse monoclonal antibody from a hybridoma (supernatant, later purified)
Regarding B1, the binding result in assay [1] and in assay [2] was “binds” in each case.

B2: 12D02 (cAb5775) (antibody, mouse IgG1, kappa, V domains shown)
VH: EVQLQQSGPELVKPGASMKISCKASGYSFTAYTMNWVKQSHGENLEWIGLINPYNGGTTYNQKFKGKATLTVDKSSSTAYMELLSLTSEDSAVYYCASYDYGYAMDYWGQGTSVTVSS
VL: DVLMTQTPLSLPVSLGDQASISCRSSQSIVHRNGNTYLEWYLQKPGQSPKLLIYKVSNRFSGVPDRFSGSGSGTDFTLKISRVEAEDLGVYYCFQGSHVPWTFGGGTKLEIKR
notes: as for B1
With B2, the binding result in assay [1] and in assay [2] was “binds” each time.

B3: 12D08 (cAb5777) (antibody, mouse IgG2a, kappa, V domains shown)
VH: EVQLQQSGAELVKPGASVKLSCTASGFNIKDTYMHWVKQRPEQGLIWIGNIDPANGHTKYAPKFQGKATITADTSSNTAYLQLSSLTSEDTAVYYCARSNDYDVDFDYWGQGTTLTVSS
VL: DIVMSQSPSSLAVSAGEKVTMSCKSSQSLLNSRTRKNYLAWYQQKPGQSPKLLIYWASTRESGVPDRFTGSGSGTDFSLTISSVQAEDLAVYYCKQSYNLYTFGGGTKLEIKR
notes: as for B1
With B3, the binding result in assay [1] and in assay [2] was “binds” in each case.

B4: 07F11C02 (cAb4853) (antibody, mouse IgG2a, kappa, V domains shown)
VH: DVQLVESGGGLVQPGGSRKLSCAASGFAFSSFGMHWVRQAPERGLEWVAYISSASNTIYYADTVKGRFTISRDNPKSTLFLQMTSLRSEDTAIYYCAKRDWDLYAMDYWGQGTSVTVSS
VL: DIVMTQSQKFLSTSVGDRVTITCKASQNVGTAVAWYQQKPGQSPELLIYSASNRHTGVPARFTGSGSGTDFTLTITNMQSEDLADYFCQQYSSSPTFGGGTKLESKR
For B4, in assay [3], the “GFP+ parental MDA-MB231 cells on the slice, 3D organotypic brain slice assay, CEMIP-positive exosomes pre-incubated with antibody” value is 6 fold decrease.

B5: 13G04 (cAb5778) (antibody, mouse IgG1, kappa, V domains shown)
VH: EVHLQQSGPELVKPGASMKISCKASGYSFTAYTMNWVKQSHGKNLEWIGLINPYNGGTTYNQKFKGKATLTVDKSSSTAYMELLSLTSEDSAVYYCASYYGGRGWYFDVWGAGTSVTVSS
VL: DIVLTQSPASLAVSLGQRATISCRASKSVSTSGYSYVHWYQQKPGQPPKLLIYLASNLESGVPARFSGSGSGTDFTLNIHPVEEEDAATYYCQNSRELPYTFGGGTKLEMKR
notes: as for B1
Regarding B5, the binding result in assay [1] and in assay [2] was “binds” throughout.
